Measurements from US9181310B2 (priority 2003, dated 2015).

Tests used:
[1] = test system: X. oryzae and X. oryzicola; format: in vivo; conditions: transgenic rice, pIPG787
[2] = test system: R. solanacearum strain Rsp446; format: in vivo, Ralstonia solanacearum; conditions: seeded T1 tobacco, three experiments each, 60 days

B1: BombBC: Bacteriophage Outer Membrane Breaching protein of Xanthomonas phage P15 (Xp15) ORF BC, 17.9 kD, SEQ ID NO. 17 (protein, listed as Xanthomonas campestris)
chain: MSDQTDTTQTTPAEKAPPKEIIRGRMPIAVVALARFGSQSTTTTKAAADALGTTVGKIDDIRKNRNFAYVTADFKPTEAQKADGIEWLKRHPVGADALIEELQNLPVATAEESAAFEQVRASARGQNAKTAEGEVAQAGGGNRRKKKEKPAEAGEVQNPPAADGDSLLS
resistance to Gram-negative bacterial pathogens [1]: will be resistant
resistance conferred to transgenic tobacco [2]: strong resistance
